How the values were obtained:
MS2 coat protein [1] = experiment: apparent KD of MS2 coat protein, switch ON state; designed switch direction (-1 OFF switch, 1 ON switch): -1; higher = weaker reporter binding; conditions: FMN input: 0 or 200 uM; Eterna round: R93 (includes R88 designs)
In short: (§1)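 With or without constant ligand, designed RNA switches in 100 mM Tris-HCl pH 7.5, 80 mM KCl and 4 mM MgCl2 were titrated with SNAP-549-labelled MS2 coat protein. Concentrations went up in twofold steps from 0.7 or 1.5 nM to 3 µM. The switches had been transcribed on-chip from Illumina sequencing clusters, and apparent KD is the per-design median of normalised cluster binding-curve fits.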

MS2 coat protein [2] = experiment: apparent KD of MS2 coat protein, switch OFF state (with FMN for OFF switches, without FMN for ON switches); designed switch direction (-1 OFF switch, 1 ON switch): -1; higher = weaker reporter binding; conditions: FMN input: 0 or 200 uM; Eterna round: R93 (includes R88 designs)
In short: as §1

MS2 coat protein [3] = experiment: apparent KD of MS2 coat protein; designed switch direction (-1 OFF switch, 1 ON switch): 1; higher = weaker reporter binding
In short: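 Transcription of designed RNA switches on Illumina chips was done by stalled E. coli RNA polymerase. SNAP-549-labelled MS2 coat protein was then titrated in doubling steps from 0.7 or 1.5 nM to 3 µM, with steps of 0.8–1.5 h at the lowest and 10–20 min at the highest concentration. The per-design median over clusters of curve-fitted normalised fluorescence is reported as apparent KD.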

[4] = input ligand: microRNA oligo, concentration not stated
[5] = Eterna round: R95, input ligand: FMN 200 uM
[6] = Eterna round: R95, input ligand: microRNA oligo, concentration not stated
[7] = Eterna round: R95, input ligand: none

Sequence	apparent KD of MS2 coat protein (MS2 coat protein [1])	apparent KD of MS2 coat protein (MS2 coat protein [2])	further results
AAAAAACAUGAGGAUCACCCAUGUAAGGAUAUGCAAAAAAAAAAAAUAAAAAAAAAAAGCAGAAGGUACAUAGA [Starry Exclusion 1.7 (wbt round 1 mod)]	0.0366 µM	0.0406 µM	–
AAAAAACAUGAGGAUCACCCAUGUAAGGAUAUGCUAAAAAACGCAAAAAAAGCGAAUAGCAGAAGGUACAAAAA [66%, Wbt, 29]	0.0194 µM	0.0359 µM	–
AAAAAACAUGAGGAUCACCCAUGUAAGGAUAUGCUGAAAAACACGGAAAAACGUGACAGCAGAAGGUACAAAAG [Mat - Exclusion 1 - Eli mod - D93]	0.0118 µM	0.084 µM	–
AAAAAACAUGAGGAUCACCCAUGUCAGGAUAUCCGAAAAAAAAAAAAAAAAAAACCUUGGAGAAGGGACAUUCC [Chica Displaced 6 - Jieux - Exclusion 1]	0.0372 µM	0.0344 µM	–
AAAAAACAUGAGGAUCACCCAUGUCAGGAUAUCUGUAUUCAAUCCUCGGAUUGAAUACAGAGAAGGGACAUGAA [Ex1: 603]	0.0413 µM	0.11 µM	–
AAAAAACAUGAGGAUCACCCAUGUGAGGAUAUACAAAACCCAUAUAAAAAGGGAAAAAGUAGAAGGCACAAAAA [wbt round 1 mod 11]	0.0275 µM	0.0339 µM	–
AAAAAACAUGAGGAUCACCCAUGUGAGGAUAUCUGUAUCCAAAAGGAAGUGUAGGAUCAGAGAAGGCACUAGGA [Power strip]	0.0401 µM	0.0838 µM	–
AAAAAACAUGAGGAUCACCCAUGUGAGGAUAUGAUGCGAAUAAAGAAAGAAUAAAGCAUCAGAAGGCACAAAAA [Mat - Exclusion 1 - Eli mod - D62]	0.0364 µM	0.0496 µM	–
AAAAAACAUGAGGAUCACCCAUGUGAGGAUAUGCAAUAAAAAAUAAAAAUAAAACAUAGCAGAAGGCACACCAA [Amethyst 58]	0.0266 µM	0.0318 µM	–
AAAAAACAUGAGGAUCACCCAUGUUAGGAUAUUCCUAAAAAAAAAAAAAAAAAAAAUGGAAGAAGGAACAAAAA [excalibur10]	0.0235 µM	0.0302 µM	–
AAAAAAGCAGGAUAUACGAACAUGUCGAAAGACGUGAAGGGACAUGAGGAUCACCCAUGUAGAAGGGUUAAGAA [Mat - Exclusion 2 - JL mod - D75]	0.166 µM	0.055 µM	–
AAAAAAGGAGGAUAUACAUGAGGAUCACCCAUGUAAAAAGGGAAAAAAAAAAAAAAAAGUAGAAGGCCUAAAAA [JR_Exc003_Sub1701]	0.0417 µM	0.0651 µM	–
AAAAAAUAAGGAUAUACAUUUCGGGAAAUUUUUACAAAAAAACAUGAGGAUCACCCAUGUAGAAGGUAUAAAAA [Exclusion 2]	0.0186 µM	0.0177 µM	–
AAAAACCAAGGAUAUACAUGAGGAUCACCCAUGUAAAAAAAAAAAAAGGGAAAAAAAAGUAGAAGGUGGAAAAA [Sekhemre Shedtawy Sobekemsaf II]	0.0209 µM	0.0386 µM	–
AAAAACCUAGGAUAUACAUGAGGAUCACCCAUGUAAAAAAAAAAAAAGGGAAAAAAAAGUAGAAGGAGGAAAAA [Sekhemre Wadjkhaw Sobekemsaf I]	0.0206 µM	0.0249 µM	–
AAAAACGGAGGAUAUACAUGAGGAUCACCCAUGUAAAAAAAAAAAAAGGGAAAAAAAAGUAGAAGGCCGAAAAA [Sekhemrekhutawy Pantjeny]	0.0391 µM	0.0712 µM	–
AAAAAGAGAGGAUAUACAUGAGGAUCACCCAUGUGAAAGACGAAAAAAAGUCAAAAAAGUAGAAGGCUCAAAAA [65%, Moding Exclusion3-cac2, 15]	0.0238 µM	0.0254 µM	–
AAAAAGAGAGGAUAUACAUGAGGAUCACCCAUGUGACACAAAAUAAAUAAAAUAAAGUGUAGAAGGCUCAAAAA [65%, Moding Exclusion3-cac2, 20]	0.0238 µM	0.0782 µM	–
AAAAAGAGAGGAUAUACAUGAGGAUCACCCAUGUGACAUAAAAUAAAUAAAAUAAAGUGUAGAAGGCUCAAAAA [65%, Moding Exclusion3-cac2, 21]	0.0417 µM	0.104 µM	–

Sequence	apparent KD of MS2 coat protein (MS2 coat protein [1])	apparent KD of MS2 coat protein (MS2 coat protein [2])	further results
AAAAAGAGAGGAUAUGCAGGAGGUAAGGUCGAAAAAAAAAAACAUGAGGAUCACCCAUGUAGAAGGUUUAAAAA [Ecls2-VII]	0.0236 µM	0.0239 µM	–
AAAAAGAUAGGAUAUACGAACAUGUCGAAAGACGUGAAGGGACAUGAGGAUCACCCAUGUAGAAGGGUUAAAAA [Mat - Exclusion 2 - JL mod - D88]	0.149 µM	0.05 µM	–
AAAAAGCAAGGAUAUACAUGAGGAUCACCCAUGUGAAAAAAAACAAUAAGAAGAACAAGUAGAAGGUGCAAAAA [Mod of Ex3 Tesla 1 - Jieux - Exclusion 3]	0.0195 µM	0.0282 µM	–
AAAAAGCGAGGAUAUACAUGAGGAUCACCCAUGUGAGAGAAAAAAAGGAGAAAAAAAAGUAGAAGGCGCAAAAA [Abraham Harold Maslow]	0.0638 µM	0.0683 µM	–
AAAAAGCGAGGAUAUACGAAGCUAAGACAAAUAAGCAAGGGACAUGAGGAUCACCCAUGUAGAAGGCGCAAAAA [Exclusion 2-01... 60% 2]	0.0294 µM	0.0586 µM	–
AAAAAGCGAGGAUAUACGAGUCAAAGAAAAGACAAAAGGGAACAUGAGGAUCACCCAUGUAGAAGGCGCAAAAA [Fiskers exclusion D2 62% 2]	0.03 µM	0.1 µM	–
AAAAAGGCAGGAUAUACAAAACAGGGAAACCUGAAAGGGAAACAUGAGGAUCACCCAUGUAGAAGGGCCAAGAA [Clint Eastwood 64% 1]	0.0373 µM	0.0954 µM	–
AAAAAGGCAGGAUAUGCAUACUCACGGAAAAAAAGGUUGGGACAUGAGGAUCACCCAUGUAGAAGGGCCAAAAA [Dora Explored 14 - Jieux - Exclusion 2]	0.0296 µM	0.0238 µM	–
AAAAAGGGAGGAUAUACGAAACAGGGAAACCUGAAAAGGAGACAUGAGGAUCACCCAUGUAGAAGGCCCAAGAA [Clint Eastwood 64% 4]	0.0253 µM	0.0533 µM	–
UUGCUCAUGUAAGGAUAUGCAGCCGUUUCGGCUGCAGAAGGUACUAUAAUACAUGAGGAUCACCCAUGUCUCUAUUAUUUAGUG [salish99_SSNG1_r04_924] (Eterna round: R96, puzzle: Same State NG 1)	–	–	apparent KD of MS2 coat protein (MS2 coat protein [3]; input ligand: FMN 200 uM): 0.0786 µM; apparent KD of MS2 coat protein (MS2 coat protein [3]; [4]): 0.0438 µM; apparent KD of MS2 coat protein (MS2 coat protein [3]; input ligand: none): 0.0598 µM
UUGCUCGUGUGAGGAUAUGCAGCCGUUUCGGCUGCAGAAGGUACUAUAAUACAUGAGGAUCACCCAUGUCUCUGUUGUUUAGUG [salish99_SSNG1_r04_928] (Eterna round: R96, puzzle: Same State NG 1)	–	–	apparent KD of MS2 coat protein (MS2 coat protein [3]; input ligand: FMN 200 uM): 0.034 µM; apparent KD of MS2 coat protein (MS2 coat protein [3]; [4]): 0.0278 µM; apparent KD of MS2 coat protein (MS2 coat protein [3]; input ligand: none): 0.0392 µM
UUGGUGUAGAUACAGGAUAUGUUGCUCGUAACAUGAGGAUCACCCAUGUAUCUAUGAGAUUAAAUGCAGAAGGGUGCACAUCACU [salish99_ss2_r3_088] (puzzle: Same State 2)	–	–	apparent KD of MS2 coat protein (MS2 coat protein [3]; [5]): 0.121 µM; apparent KD of MS2 coat protein (MS2 coat protein [3]; [6]): 0.0542 µM; apparent KD of MS2 coat protein (MS2 coat protein [3]; [7]): 0.329 µM
UUGUUUCGUCAUUAACAUGAGGAUCACCCAUGUAUUGACCCAGAGGAUAUGCAUGUUUGAUUGUAGCAGAAGGCUGAUUGUUGU [JR_SSNG3_Sub032] (Eterna round: R96, puzzle: Same State NG 3)	–	–	apparent KD of MS2 coat protein (MS2 coat protein [3]; input ligand: FMN 200 uM): 0.0137 µM; apparent KD of MS2 coat protein (MS2 coat protein [3]; [4]): 0.027 µM; apparent KD of MS2 coat protein (MS2 coat protein [3]; input ligand: none): 0.0263 µM
UUUAGGAACGGGCAGGAUAUGUAUUAAAAUACAUGAGGAUCACCCAUGUGCGGGUAUAACACCCGACAGAAGGGCCAAUCGUUCC [Laonerce - 9] (puzzle: Same State 2)	–	–	apparent KD of MS2 coat protein (MS2 coat protein [3]; [5]): 0.0227 µM; apparent KD of MS2 coat protein (MS2 coat protein [3]; [6]): 0.17 µM; apparent KD of MS2 coat protein (MS2 coat protein [3]; [7]): 0.231 µM
UUUAGUUGCGGGCAGGAUAUGUAUUAAAAUACAUGAGGAUCACCCAUGUGCGGGUAUAACACCCGGCAGAAGGGCCAAUCGCGAC [Laonerce - 3] (puzzle: Same State 2)	–	–	apparent KD of MS2 coat protein (MS2 coat protein [3]; [5]): 0.0342 µM; apparent KD of MS2 coat protein (MS2 coat protein [3]; [6]): 0.191 µM; apparent KD of MS2 coat protein (MS2 coat protein [3]; [7]): 0.296 µM
UUUAUAUUCAGAGGAUAUUAAUGUUGUAUAAUAUAAGAAGGCUGUUUGUUUUGUAAAGUUAUUAUACAUGAGGAUCACCCAUGU [JR_SSNG1_Sub082] (Eterna round: R96, puzzle: Same State NG 1)	–	–	apparent KD of MS2 coat protein (MS2 coat protein [3]; [4]): 0.0155 µM
UUUAUAUUCAGAGGAUAUUGAUGUUGUAUUUUACAAGAAGGCUGUUUGUUUUGUAAUGUUAUUAUACAUGAGGAUCACCCAUGU [JR_SSNG1_Sub015] (Eterna round: R96, puzzle: Same State NG 1)	–	–	apparent KD of MS2 coat protein (MS2 coat protein [3]; [4]): 0.0168 µM
UUUGGGUGGCUGGAGGAUAUUCUAGUGGUUACAUGAGGAUCACCCAUGUGUCGCGCGGUACGCGAGGAGAAGGCUGGCGGCCGUU (puzzle: Same State 2)	–	–	apparent KD of MS2 coat protein (MS2 coat protein [3]; [6]): 0.0835 µM
UUUGGGUGGCUGGAGGAUAUUCUUGUGGUUACAUGAGGAUCACCCAUGUGUCGCGCGGUGCGCGAGGAGAAGGCUGGCGGCCGUU (puzzle: Same State 2)	–	–	apparent KD of MS2 coat protein (MS2 coat protein [3]; [6]): 0.186 µM

Reference: the supplement of paper PMC9170038
